This series can be described thus: amyloid nucleation score (Sup35N fusion, yeast selection) (log enrichment); library NNK1; higher = more nucleation; inactive = no reads after selection. The method, boiled down:
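Sup35N fusions to peptides of 20 random codons were expressed in psi-negative yeast, induced 24 hours with 100 μM copper sulfate, and grown 7 days at 30°C on medium lacking adenine and uracil. Input and output plasmid inserts were sequenced by Illumina. The nucleation score is the DiMSum log enrichment of output over input reads, centred on the mode score of non-aggregating sequences. Sequences with under 100 input reads were excluded.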

For 142 substances, amyloid nucleation score results are on record in the supplement of paper PMC12042874.

± gives the uncertainty stated by the source.

In the case of DSFVRT, the amyloid nucleation score entry is “inactive”. Next, KCIYTEKEMGLSAFTLRLYI: 6.286 ± 0.058; GAGHGELDKWNPSDGPQLLW: -0.096 ± 0.77. Next, VDLVGYVVGIFNVYKVVEDT: -0.321 ± 0.23; NRLVMLLLTLSNGSCEKVRD: 2.95 ± 0.094. The value for LRRGKLDLDHPLVNKWRKKG was -0.005 ± 0.67; that for CFRELPYSLYNC was -0.666 ± 0.42. Take TYLIKMSVT: the amyloid nucleation score is 0.313 ± 0.39. In turn, ENERMTLHCGYFKNMCMFRF came in with an amyloid nucleation score of 1.9 ± 0.22. IIYDLLCYSWRMFWL came in with an amyloid nucleation score of 2.27 ± 0.1.

VPVYNMNFYAVLHILSFCLD showed an amyloid nucleation score of 4.18 ± 0.057. Next, VVILYIDRFGVLFHHLG: 0.821 ± 1.1; VTYKEQNGLLLFAPDSVQRD: “inactive”. The value for SVRTCFNRYLKQVRVWSYAG was -0.165 ± 1.6; that for NFTICLGRSTEHPGIRFDAG was -0.207 ± 1.9. HFTIKF yielded an amyloid nucleation score of 1.06 ± 0.27. KMQPQMTCFS returned an amyloid nucleation score of -0.435 ± 0.53. With YIVYFESRN, the amyloid nucleation score is 0.438 ± 0.16. Next, RCSFFSYCVNDAS: 3.55 ± 0.12; NSFVTVFLRWKYFVMSDMWP: -0.139 ± 0.25; GICHSPGWCC: 2.69 ± 0.14.

Consider GIAVGS, for which the amyloid nucleation score was 0.413 ± 0.49. Substance AVLWTHQYFYYYIGLAF displayed an amyloid nucleation score of -0.267 ± 0.68. As for KMRILWVV, the amyloid nucleation score came out at 0.945 ± 0.51.

NLQSCLVYKVSVGNLPLIYL displayed an amyloid nucleation score of -0.45 ± 1.2.

As for IIWMSRRSSSLNEKGLKFNY, the amyloid nucleation score is -0.548 ± 0.29. Regarding IITMIP, the amyloid nucleation score is -0.514 ± 0.65. Take GFYFSYSWVRRSRNSKSMAS: the amyloid nucleation score is 0.418 ± 1. The value for FRNIDTLLTVHCVSACR was -2.4 ± 2.7; that for CCLLDWSLDNGYNRQLRKET was 0.219 ± 0.32; that for SYYQKCNAKNIF was -0.576 ± 0.4.

On to SSCVTFSYMKSVFRFLPCWW, for which the amyloid nucleation score is 1.96 ± 0.092.

In turn, HCVRQTSWMLAENLAWEVWL displayed an amyloid nucleation score of 1.1 ± 0.58. The value for KGELLGDWGAIYHWCF was “inactive”. Consider HDFRFIGSWHLTYGPSVTTT, for which the amyloid nucleation score was -0.471 ± 0.49.

As for YGLMVVVKVS, the amyloid nucleation score was 6.666 ± 0.043. For the substance LYIGIPYVGVWNL, the amyloid nucleation score is 0.282 ± 1.2. Next, IWRWPRMESKSGYHSDFNST: -1.32 ± 2.4; HRISASTLCVIMALRFTSWR: 1.42 ± 0.44.

ERDCAMISNLSNLTVNY had an amyloid nucleation score of -0.616 ± 0.36. As to RVCKYGCAKT, the amyloid nucleation score was found to be 0.566 ± 0.34. The value for YRSGSMLCNYPSRAVTVCWS was 1.16 ± 0.38; that for SPMMVNVYATDDVDLPSWLM was -0.293 ± 0.47. The value for SSDSVSLYYLISYTPFGRFN was “inactive”; that for YSSLLVTLAEAWCIRLSNRR was 0.665 ± 0.84. Next, ESCKSVNCLMRQGDLRVTAW: -0.122 ± 0.3; SYNVMCVGYCIC: 3.4 ± 0.12; ISEVFD: -0.237 ± 0.24. In turn, YLIMGNVFNVAVVGGIGCVE yielded an amyloid nucleation score of 0.345 ± 0.29. Turning to TYGKIMVN, the amyloid nucleation score was -0.418 ± 1.5.

Turning to WVNVTRVNGRDEGAPSIRNK, the amyloid nucleation score is -0.787 ± 0.4. Next, FNKVYMSSIVASKVVKMRLI: -0.476 ± 0.75; SINVL: -1.03 ± 0.55. The value for IYNFSKYPVFGKTRALGFNF was -0.395 ± 0.67. Next, DLYSGSSFPEISGETSGYIP: 0.06 ± 0.49; LFWWKE: -0.292 ± 0.44. Substance QKKSLVRGKGES yielded an amyloid nucleation score of -0.145 ± 0.48. On to MRDLK, for which the amyloid nucleation score is -0.405 ± 0.53. GMSIE gave an amyloid nucleation score of -0.314 ± 0.8. Next, VIIRRWHIVFCSRFMFPCNF: 0.297 ± 0.64. In turn, HTWMSLRGVAFTCQ returned an amyloid nucleation score of -0.13 ± 0.3. Take HMWYFRYGHEWSRTYNKCIK: the amyloid nucleation score is -0.02 ± 0.72. Next, PDDNMMVLGVSSADNLLIRL: 0.579 ± 0.66. NSMNLNG: the amyloid nucleation score result is “inactive”.

As to TRFVVVVMIISQLRCLLCDM, the amyloid nucleation score turned out to be 0.61 ± 1.

For RWCLSTRKFSWR, the amyloid nucleation score was determined as 0.305 ± 0.42. Consider IYYSFVGLVMCYAFPAEVWS, for which the amyloid nucleation score amounted to 1.4 ± 0.51.

As for VSLVAGTWFYFWHNALVTYH, the amyloid nucleation score was -0.067 ± 0.36. AWFSISTRRIAIAWVILPCN showed an amyloid nucleation score of -0.398 ± 0.4. The substance KCIYVFSYIYTFLNMCWRGH returned an amyloid nucleation score of 3.5 ± 0.1.

CRIQFSSVRMDDSCAQGRKD had an amyloid nucleation score of 0.504 ± 0.67.

For the substance LGFSSVYWESCSL, the amyloid nucleation score was -0.275 ± 0.58. Next, MILLKCIYY: 0.179 ± 0.39; DYLLCLILAKVWDDSNGSWV: 1.52 ± 0.5. As to LNVGV, the amyloid nucleation score is -0.215 ± 1.7.

The substance NLFVKFLNSRRCINFMTMFD showed an amyloid nucleation score of -0.01 ± 0.77. The value for NDYTELEIFCNLLRLMFWVV was -0.162 ± 0.48; that for QMRAFSDLFLLSDY was 0.406 ± 0.46; that for FSVAGSE was “inactive”. For TYQRRL, the amyloid nucleation score is -0.414 ± 1.1. Next, NVIFPTYRFVRFPSYMTLGW: “inactive”.

For TLFLKDLSLLAFEFPLNISA, the amyloid nucleation score was -0.507 ± 0.37. In turn, YHTNTGDDPSCPRPSTSYSG registered an amyloid nucleation score of 1.98 ± 0.51. The value for TFQCCLDVCASVC was 0.273 ± 0.46. Take AIRWYGMDDMPTRGYQWSPA: the amyloid nucleation score is -0.128 ± 0.59. For HGAMLSSM, the amyloid nucleation score was -2.06 ± 2.4. The value for PKARYRFSWLTRYNLNNRRE was -0.608 ± 0.52. Next, NSYLSND: “inactive”; RVGWMLNGAGALWFFRYKLN: -0.256 ± 0.7; SCGWDLVCGMMAVHSSGIVL: 0.975 ± 0.42.

With LLSHQVTPSGRYSFSLCKSW, the amyloid nucleation score is 0.873 ± 0.84. GNMSCPFVQRREVLLC came in with an amyloid nucleation score of -0.383 ± 1.4. As to FRLTGTLALKFVVELTVRR, the amyloid nucleation score was found to be 2.79 ± 0.26. As for IRIKDTFESWYSLINEDLGH, the amyloid nucleation score result was “inactive”. Next, LELLSSWWYSSIYTGTDCVT: 2.08 ± 0.25; DFNHYDRSSW: 2.45 ± 0.18. The value for DRCVQCTALTASTGR was -0.113 ± 0.94; that for FRYLVKYRVLH was 0.14 ± 0.44; that for SHLMPGCEKFLHCVSFPDA was -0.45 ± 0.56. The value for VNQFLRAMVPLKLRYRYFCL was 1.02 ± 0.74; that for HALTSDRYWKERPTIPRFRF was -0.174 ± 0.36. QWGTREYGIFLDIFVHVTVN had an amyloid nucleation score of 0.237 ± 0.56. The value for DNGCDEVCWELVFEFVD was 0.562 ± 0.39; that for CRLHVNGLVIVCASWKCGA was 3.76 ± 0.1; that for LDSFTYKS was 1.99 ± 0.49. Next, RNMLELSFWCYEMKNSSSWS: 1.15 ± 0.24. For the substance VSVGR, the amyloid nucleation score is -0.153 ± 1.4.

Substance FFSSNNRWRTLYNLHCSEFA displayed an amyloid nucleation score of 0.24 ± 0.56. Next, YRRGKIAWGSTARHETVFIL: 0.336 ± 0.52; SKFFQLFSVTILYAMDSGPC: -0.462 ± 0.7; FYLHNICVRR: -0.249 ± 0.52. The value for NYITCC was 1.37 ± 0.1; that for YSGRVTLWIVPMLHARH was -0.114 ± 0.42; that for MSGVRYLCCL was 0.087 ± 0.58. Next, MHRSFFHVM: 2.33 ± 0.52; WHWVAEWSMRTYSGLSIECY: “inactive”; CYLLQWTSFCQQAFSNEMGW: 0.267 ± 0.67. As to GPTRLDAEG, the amyloid nucleation score was -0.54 ± 0.87. Next, VRRSEHSRLSYEWGECLRLT: -0.174 ± 0.38. Regarding VGRMPNGYVVGINIGLSRRL, the amyloid nucleation score was -0.696 ± 1.7. With ITLKF, the amyloid nucleation score is -0.381 ± 0.43. Turning to CDYAVGHNVDFYYLTSNPSG, the amyloid nucleation score was -0.301 ± 0.53. YAVCRLANSSGSRHVFLCHT had an amyloid nucleation score of 0.527 ± 0.31. FTRTLMLMIRACCWHRFQLT came in with an amyloid nucleation score of 0.008 ± 0.91.

NRLCDK registered an amyloid nucleation score of 1.25 ± 0.35.

As for CRPVGSTVVSVDNGTS, the amyloid nucleation score was -0.188 ± 0.37. The value for RSFAYSLSQGYFANMNAKVR was “inactive”; that for FCQGYRLGS was 0.19 ± 0.48; that for RTSRHVVVRREMRDRT was 0.202 ± 0.21. The value for TVNSWRNLMSDLSWFSAVIL was -0.657 ± 0.39; that for KFLLLSCYIEWRLMSVLAKA was 0.968 ± 0.69. Next, SHLFQM: -0.034 ± 0.58; FRPSRHNAQPMFHSKPSRAF: -0.636 ± 1.1. The substance EVWNRTWIGEENVTGPFVPR showed an amyloid nucleation score of -0.012 ± 0.24. As for DSGTLDQYH, the amyloid nucleation score worked out at 0.157 ± 0.86. In turn, LAFNTIYWVIRIESFWLSAA yielded an amyloid nucleation score of -0.189 ± 0.36.

As to PKATRIALPFFLGLCFSMCL, the amyloid nucleation score is -0.143 ± 0.38.

For the substance AFPTIAYMIWVFVDVQLCSE, the amyloid nucleation score was found to be 1.25 ± 0.58. Next, GEKCGSVPGHQLGTDILSRA: 0.819 ± 0.67. The value for MYMGAPSIVVIVMLQNMKFV was 2.34 ± 0.32; that for VRNHVYGLCVSWTAGDKCNR was 5.03 ± 0.087. The value for FAWSRAACFSIPVRISVSLG was 1.14 ± 0.72.
